In article PMC9207482:

Legend:
[1] = target: SlPYL1 E151D (tomato (Solanum lycopersicum)); assay: SEC; Superdex 30 Increase 3.2/300 column as printed; 50 ul with 60, 6 or 0.6 ug protein (48 to 0.48 uM injected); 30 mM Tris-HCl pH 7.5, 150 mM NaCl, 1 mM DTT; apo form, no ABA; refractive index detection
[2] = target: SlPYL1 wild type (tomato dimeric abscisic acid receptor PYL1) (tomato (Solanum lycopersicum)); assay: as above

stoichiometry N [1] | stoichiometry N [2] | Substance
2 |  | SlPYL1 E151D (receptor)
 | 2 | SlPYL1 wild type (tomato dimeric abscisic acid receptor PYL1)
